± gives the uncertainty stated by the source.
B1: PDZ and LIM domain protein 2, residues 284 to 339; numbered along this chain, Q96JY6 (parent)
chain: HTCEKCSTSIANQAVRIQEGRYRHPGCYTCADCGLNLKMRGHFWVGDELYCEKHAR

Variants of: B1
Assay: abundance fitness (aPCA) (normalised: wild type 0, dead -1); higher = more abundant; growth selection in yeast, the domain comes from the species named
Conditions: Homo sapiens

Abundance fitness: each site, then its substitutions
D47: Y -0.224 ± 0.098 | M -0.086 ± 0.11 | E -0.12 ± 0.14 | V -0.229 ± 0.089 | S 0.004 ± 0.077 | R 0.008 ± 0.061 | H -0.136 ± 0.098 | F -0.339 ± 0.21 | W -0.1 ± 0.059 | L -0.026 ± 0.073 | I -0.135 ± 0.081 | N -0.11 ± 0.14 | C -0.002 ± 0.11 | T -0.047 ± 0.068 | K 0.052 ± 0.12 | G -0.11 ± 0.075
E48: K -0.034 ± 0.12 | L -0.082 ± 0.09 | C -0.289 ± 0.23 | H -0.084 ± 0.32 | I -0.174 ± 0.11 | D -0.065 ± 0.19 | G 0.079 ± 0.079 | M -0.18 ± 0.12 | A -0.091 ± 0.061
K38: Y -0.037 ± 0.14
G46: P -0.324 ± 0.093 | W -0.429 ± 0.17 | N 0.112 ± 0.13 | A -0.206 ± 0.092 | T -0.202 ± 0.095 | R -0.031 ± 0.067 | C -0.202 ± 0.16 | I -0.223 ± 0.18 | K 0.019 ± 0.12 | E 0.047 ± 0.064 | Y 0.044 ± 0.17 | H -0.238 ± 0.19 | L -0.134 ± 0.068 | M -0.276 ± 0.14 | Q -0.206 ± 0.11 | V -0.226 ± 0.081 | S -0.066 ± 0.07 | F -0.624 ± 0.24
H42: W -0.233 ± 0.064 | Q -0.032 ± 0.11 | K -0.113 ± 0.064 | I -0.282 ± 0.24 | R -0.19 ± 0.064 | S 0.022 ± 0.065 | Y -0.393 ± 0.12 | M -0.162 ± 0.16 | E 0.16 ± 0.08 | P -0.053 ± 0.15 | V -0.064 ± 0.081 | G -0.301 ± 0.057 | T 0.008 ± 0.14 | L 0.178 ± 0.084 | D 0.078 ± 0.076 | C -0.005 ± 0.14 | A -0.147 ± 0.076
F43: P -0.058 ± 0.084 | D 0.087 ± 0.066 | R -0.138 ± 0.071 | G -0.048 ± 0.049 | S -0.056 ± 0.084 | A -0.189 ± 0.088 | Q -0.26 ± 0.13 | M -0.208 ± 0.13 | C 0.101 ± 0.13 | E -0.057 ± 0.1 | L -0.048 ± 0.066 | W 0.099 ± 0.074 | N 0.071 ± 0.19 | T -0.04 ± 0.085 | V -0.423 ± 0.093 | Y -0.145 ± 0.11 | I -0.084 ± 0.17 | K -0.381 ± 0.12
M39: A 0.226 ± 0.066 | Y 0.002 ± 0.067 | W -0.523 ± 0.068 | Q 0.048 ± 0.12 | E 0.286 ± 0.063 | S 0.057 ± 0.064 | N 0.095 ± 0.13 | L -0.123 ± 0.075 | T 0.173 ± 0.086 | H -0.116 ± 0.18 | I -0.347 ± 0.19 | F -0.186 ± 0.069 | C -0.186 ± 0.17 | P 0.422 ± 0.11 | G 0.223 ± 0.055 | K 0.071 ± 0.1
R40: A 0.041 ± 0.12 | H 0.274 ± 0.11 | S 0.079 ± 0.073 | D 0.027 ± 0.16 | V 0.092 ± 0.063 | F -0.156 ± 0.098 | K 0.188 ± 0.079 | P 0.14 ± 0.13 | M 0.063 ± 0.059 | L 0.129 ± 0.074 | G 0.219 ± 0.061 | Y -0.163 ± 0.12 | E 0.066 ± 0.071 | T -0.009 ± 0.1 | Q -0.091 ± 0.11 | I -0.293 ± 0.12 | C 0.221 ± 0.1 | N 0.21 ± 0.13
V45: R 0.108 ± 0.051 | A 0.022 ± 0.087 | I 0.29 ± 0.12 | Y 0.066 ± 0.062 | G 0.107 ± 0.061 | M -0.057 ± 0.07 | T -0.585 ± 0.12 | H 0.221 ± 0.11 | E 0.041 ± 0.083 | Q -0.092 ± 0.12 | S -0.11 ± 0.072 | K 0.313 ± 0.1 | C -0.242 ± 0.16 | W -0.116 ± 0.094 | L -0.063 ± 0.073 | P -0.361 ± 0.12 | D -0.434 ± 0.12 | N -0.155 ± 0.089
G41: M -0.386 ± 0.09 | W -0.797 ± 0.072 | A -0.139 ± 0.058 | L -0.437 ± 0.061 | V -0.434 ± 0.088 | T -0.083 ± 0.095 | K -0.169 ± 0.12 | C -0.408 ± 0.095 | E -0.191 ± 0.088 | H -0.682 ± 0.36 | Y -0.395 ± 0.2 | N -0.146 ± 0.22 | S -0.436 ± 0.12 | P -0.025 ± 0.12 | R -0.216 ± 0.067 | Q -0.076 ± 0.086 | D -0.088 ± 0.15 | I -0.673 ± 0.11 | F -0.259 ± 0.18
W44: F 0.025 ± 0.12 | L 0.096 ± 0.057 | Q 0.096 ± 0.13 | N -0.24 ± 0.25 | A 0.163 ± 0.062 | K -0.208 ± 0.14 | R -0.045 ± 0.073 | V 0.044 ± 0.09 | Y 0.128 ± 0.19 | M -0.034 ± 0.13 | H 0.15 ± 0.084 | C 0.005 ± 0.15 | E 0.139 ± 0.092 | P 0.205 ± 0.064 | T -0.232 ± 0.14 | I 0.352 ± 0.14 | S 0.027 ± 0.098

From the Human Domainome abundance scans (Beltran et al. 2025)
